Among the data in paper PMC6684660, “ABCG1 contributes to suberin formation in Arabidopsis thaliana roots” (Scientific Reports, 2019) are Km and Vmax values, retold here.

Substrate in the series: Nc1ncnc2c1ncn2[C@@H]1O[C@H](COP(=O)(O)OP(=O)(O)OP(=O)(O)O)[C@@H](O)[C@H]1O
The experiment in a line: malachite green ATPase assay. Type of series: biochemical, Arabidopsis thaliana. Conditions: ATP 0-8 mM, 10 mM MgCl2, 25 °C. From the text:
malachite green ATPase assay on AtABCG1

Where [1] appears, read: Fos-Choline-14, EQ/HA background subtracted.
The mark [2] stands for this setting: Fos-Choline-14, hydrolysis-deficient mutant used as background control.

B1: AtABCG1 (Arabidopsis thaliana) (protein)
chain: MARIVAANDDDSMELNTISSIHDSTLGQLLKNVSDVRKMAIGDETPVHESLNQDYNDGYMRTVPFVLSFDNLTYNVSVRPKLDFRNLFPRRRTEDPEIAQTARPKTKTLLNNISGETRDGEIMAVLGASGSGKSTLIDALANRIAKGSLKGTVKLNGETLQSRMLKVISAYVMQDDLLFPMLTVEETLMFAAEFRLPRSLPKSKKKLRVQALIDQLGIRNAAKTIIGDEGHRGISGGERRRVSIGIDIIHDPILLFLDEPTSGLDSTSAFMVVKVLKRIAQSGSIVIMSIHQPSHRVLGLLDRLIFLSRGHTVYSGSPASLPRFFTEFGSPIPENENRTEFALDLIRELEGSAGGTRGLIEFNKKWQEMKKQSNRQPPLTPPSSPYPNLTLKEAIAASISRGKLVSGGESVAHGGATTNTTTLAVPAFANPMWIEIKTLSKRSMLNSRRQPELFGIRIASVVITGFILATVFWRLDNSPKGVQERLGFFAFAMSTMFYTCADALPVFLQERYIFMRETAYNAYRRSSYVLSHAIVSFPSLIFLSVAFAATTYWAVGLDGGLTGLLFYCLIILASFWSGSSFVTFLSGVVPSVMLGYTIVVAILAYFLLFSGFFINRNRIPDYWIWFHYMSLVKYPYEAVLQNEFSDATKCFVRGVQIFDNTPLGELPEVMKLKLLGTVSKSLGVTISSTTCLTTGSDILRQQGVVQLSKWNCLFITVAFGFFFRILFYFTLLLGSKNKRR
notes: full-length half-size transporter, N-terminal tag (CBP, His detected) kept, expressed in Pichia pastoris X33, purified in Fos-Choline-14, 86 kDa with tag, homodimer
The Km is the substrate concentration at which the rate is half of its maximum. Broadly, the Vmax is the rate approached at saturating substrate. In the case of B1, under setting [1], the Michaelis-Menten constant (Km) is 1800 ± 100 µM and the Vmax is 0.0188 µmol/min/mg.

B2: AtABCG1 (Arabidopsis thaliana; E259Q/H291A) (protein)
chain: MARIVAANDDDSMELNTISSIHDSTLGQLLKNVSDVRKMAIGDETPVHESLNQDYNDGYMRTVPFVLSFDNLTYNVSVRPKLDFRNLFPRRRTEDPEIAQTARPKTKTLLNNISGETRDGEIMAVLGASGSGKSTLIDALANRIAKGSLKGTVKLNGETLQSRMLKVISAYVMQDDLLFPMLTVEETLMFAAEFRLPRSLPKSKKKLRVQALIDQLGIRNAAKTIIGDEGHRGISGGERRRVSIGIDIIHDPILLFLDQPTSGLDSTSAFMVVKVLKRIAQSGSIVIMSIAQPSHRVLGLLDRLIFLSRGHTVYSGSPASLPRFFTEFGSPIPENENRTEFALDLIRELEGSAGGTRGLIEFNKKWQEMKKQSNRQPPLTPPSSPYPNLTLKEAIAASISRGKLVSGGESVAHGGATTNTTTLAVPAFANPMWIEIKTLSKRSMLNSRRQPELFGIRIASVVITGFILATVFWRLDNSPKGVQERLGFFAFAMSTMFYTCADALPVFLQERYIFMRETAYNAYRRSSYVLSHAIVSFPSLIFLSVAFAATTYWAVGLDGGLTGLLFYCLIILASFWSGSSFVTFLSGVVPSVMLGYTIVVAILAYFLLFSGFFINRNRIPDYWIWFHYMSLVKYPYEAVLQNEFSDATKCFVRGVQIFDNTPLGELPEVMKLKLLGTVSKSLGVTISSTTCLTTGSDILRQQGVVQLSKWNCLFITVAFGFFFRILFYFTLLLGSKNKRR
notes: as for B1
Regarding B2, under setting [2], the Km is 700 ± 400 µM and the maximal velocity (Vmax) stood at 0.0017 µmol/min/mg.
